The text below walks through data of patent US7858745B2, “Use of specifically engineered enzymes to enhance the efficacy of prodrugs” (The Board of Trustees of the University of Illinois, priority 2003, dated 2010).

Series [1] relates to Nc1ccn([C@H]2CC[C@@H](CO)O2)c(=O)n1. Put plainly: purified protein, by the assay type. Conditions: other: nucleoside as substrate, dCK 0.4 μM, ATP•Mg 1 mM, 37° C., pH 7.5.
Series [2] concerns Nc1ccn([C@@H]2O[C@H](CO)[C@@H](O)C2(F)F)c(=O)n1. Put plainly: purified protein, by the assay type. The following applies: other: nucleoside as substrate, pH 7.5.
Setting [3] is: dCK 0.4 μM, ATP•Mg 1 mM, 37° C.

Chain of A100V/R104M/D133A-dCK (Homo sapiens; A100V/D133A/R104M) (chain, as listed by the source A100V R104M D133A A100V D133A R104M): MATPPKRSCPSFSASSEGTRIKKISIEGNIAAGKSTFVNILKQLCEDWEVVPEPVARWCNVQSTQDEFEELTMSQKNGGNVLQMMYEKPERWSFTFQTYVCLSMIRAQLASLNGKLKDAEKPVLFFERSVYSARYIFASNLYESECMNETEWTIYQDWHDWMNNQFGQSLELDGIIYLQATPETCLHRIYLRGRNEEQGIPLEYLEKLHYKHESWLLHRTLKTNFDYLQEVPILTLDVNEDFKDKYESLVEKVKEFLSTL
Chain of Wild Type dCK (Homo sapiens) (chain, as listed by the source): as the sequence (chain, as listed by the source A100V R104M D133A A100V D133A R104M) above, with V100A, M104R, A133D counted along it

By Km is commonly meant the concentration of substrate that gives half-maximal velocity. What is called kcat is the number of substrate molecules converted per active site and unit of time at saturation. The term kcat/Km denotes the second-order rate constant that governs catalysis at low substrate concentration. For Wild Type dCK (Homo sapiens), in series [1], the Km stood at 406.8 µM, the turnover number (kcat) turned out to be 0.18 s⁻¹ and the kcat/Km amounted to 400 M⁻¹ s⁻¹. In addition, in series [2] (setting [3]), the Michaelis constant (Km) turned out to be 22.0 µM, the turnover number (kcat) amounted to 0.37 s⁻¹ and the kcat/Km came out at 16800 M⁻¹ s⁻¹.
In the case of “A100V/R104M/D133A-dCK (Homo sapiens; A100V/D133A/R104M)”, in series [2] (triple mutant, 37.0 °C), the Km worked out at 50 µM, the turnover number (kcat) came out at 3.52 s⁻¹ and the specificity constant (kcat/Km) worked out at 70400 M⁻¹ s⁻¹.
